The results in this text go back to publication PMC4174003 (2014).

The target of test [1] is PCSK9 (Homo sapiens, UniProt Q8NBP7). Put plainly: SPR. On the technique in general: SPR reads the build-up and loss of mass on a sensor chip optically.
The target of test [2] is T1, PCSK9 (Mus musculus, UniProt Q80W65).
T1 chain: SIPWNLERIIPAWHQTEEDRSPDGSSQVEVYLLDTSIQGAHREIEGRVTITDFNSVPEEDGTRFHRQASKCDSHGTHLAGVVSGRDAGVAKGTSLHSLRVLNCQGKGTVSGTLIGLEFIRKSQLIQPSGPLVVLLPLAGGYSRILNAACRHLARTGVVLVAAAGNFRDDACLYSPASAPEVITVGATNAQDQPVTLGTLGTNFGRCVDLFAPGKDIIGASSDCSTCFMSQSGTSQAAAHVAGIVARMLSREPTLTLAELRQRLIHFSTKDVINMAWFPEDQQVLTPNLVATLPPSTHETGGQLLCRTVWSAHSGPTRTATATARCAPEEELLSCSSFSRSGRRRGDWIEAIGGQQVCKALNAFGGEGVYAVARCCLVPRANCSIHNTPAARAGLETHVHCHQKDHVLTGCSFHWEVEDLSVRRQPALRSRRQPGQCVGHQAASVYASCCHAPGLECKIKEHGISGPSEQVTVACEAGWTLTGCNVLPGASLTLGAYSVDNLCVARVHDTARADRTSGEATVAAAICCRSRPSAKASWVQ
Put plainly: SPR.

Chain of PCSK9 (Homo sapiens, UniProt Q8NBP7) (Q8NBP7 153-692): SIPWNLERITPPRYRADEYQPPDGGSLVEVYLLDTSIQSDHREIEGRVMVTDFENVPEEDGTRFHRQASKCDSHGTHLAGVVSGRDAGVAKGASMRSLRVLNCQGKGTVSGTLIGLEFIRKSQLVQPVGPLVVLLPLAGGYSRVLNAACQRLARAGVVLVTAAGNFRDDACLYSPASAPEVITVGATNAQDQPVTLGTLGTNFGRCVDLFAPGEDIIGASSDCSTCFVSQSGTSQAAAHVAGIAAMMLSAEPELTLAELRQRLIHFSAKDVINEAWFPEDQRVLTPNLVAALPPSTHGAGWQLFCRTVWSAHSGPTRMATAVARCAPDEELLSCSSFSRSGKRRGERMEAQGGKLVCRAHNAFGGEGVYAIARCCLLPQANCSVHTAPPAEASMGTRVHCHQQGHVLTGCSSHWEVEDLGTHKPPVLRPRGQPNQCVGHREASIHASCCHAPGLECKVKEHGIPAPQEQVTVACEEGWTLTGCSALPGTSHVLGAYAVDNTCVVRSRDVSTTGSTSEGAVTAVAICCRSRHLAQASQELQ

B1: alirocumab (antibody, V domains shown)
VH: EVQLVESGGGLVQPGGSLRLSCAASGFTFNNYAMNWVRQAPGKGLDWVSTISGSGGTTNYADSVKGRFIISRDSSKHTLYLQMNSLRAEDTAVYYCAKDSNWGNFDLWGRGTLVTVSS
VL: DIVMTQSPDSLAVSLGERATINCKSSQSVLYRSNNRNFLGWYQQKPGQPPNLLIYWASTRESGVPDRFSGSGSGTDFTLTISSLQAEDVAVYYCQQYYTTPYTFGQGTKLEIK
Usually Kd stands for the concentration at which binding is half-saturated. A higher Kd goes with weaker binding. On to B1, for which the results for the Kd with PCSK9 [1] and with PCSK9 [2] were 0.58 nM and 2.6 nM, respectively.
